From the RNAGym collection of RNA variant scans (doi:10.7554/elife.90254)

B1: LINE1-mini (parent)
chain: GGCAGAGCUCAACACAGCGUGGCAAAGUGGCUGUGGCUAGACUGCC

Variants of: B1
Test: self-cleavage, relative activity (ratio to wild type); higher = more cleavage; in vitro, sequencing; the parent is a self-cleaving ribozyme

Point of comparison: G7A A39U, self-cleavage 0.25. Against it:
- C8U G40U — higher, 0.29
- G21C C45A — higher, 0.49
- A26C — higher, 0.9
- A24C U32C — lower, 0.05
- A14C C23G — lower, 0.11
- G7A C15G — lower, 0.12
- G1C C8G — lower, 0.02
- G2A G22U — higher, 0.89
- G29U C45G — higher, 0.78
- A4G G21A — higher, 1.05
- C13A G36A — lower, 0.23
- A12U G40C — lower, 0.06
- A26C C45U — higher, 1.17
- G40A U43C — lower, 0.08
- G27C U28A — higher, 0.54
- C15G G40C — lower, 0.03
- C13A A25G — lower, 0.1
- A14U G17A — lower, 0.13
- A4C G21C — lower, 0.18
- G1A G2A — higher, 1.83
- G19A G40C — lower, 0.07
- G7U C15U — lower, 0.1
- C23G G35A — lower, 0.14
- G7U C42G — lower, 0.12
- G2A A24G — higher, 1.04
- G2A A24U — higher, 0.86
- G2A A4U — higher, 0.58
- U9G G36A — higher, 0.61
- A16C G33A — lower, 0.07
- C3A G7C — lower, 0.13
- A12U G30A — higher, 0.48
- A6U C15U — higher, 0.92
- C18U A39U — higher, 0.78
- A41U G44U — lower, 0.16
- G27A C37U — lower, 0.05
- U20G G30A — higher, 0.66
- G2U C8A — lower, 0.07
- C8A U20C — lower, 0.15
- G1U C31A — lower, 0.07
- C23U U43G — lower, 0.03
- G21C A39U — higher, 0.81
- G29C C31G — higher, 0.34
- A4C G17U — lower, 0.08
- A24C G30C — higher, 0.49
- A24C G29A — higher, 1.02
- U9G G40U — lower, 0.08
- A26C C37G — lower, 0.02
- G35A C45U — lower, 0.13
- C13A G33A — lower, 0.08
- C23G A41G — higher, 0.37
- A25C G44U — lower, 0.16
- C13A C42G — lower, 0.08
- A39U G40C — lower, 0.18
- G5A G40U — lower, 0.1
- G5U G44A — lower, 0.08
- A24G C42A — lower, 0.19
- C3A G27U — higher, 0.62
- A26U U32A — lower, 0.11
- G30C C37G — lower, 0.07
- C18A G30A — higher, 1.63
- C23A G29U — higher, 0.88
- G19A A24C — higher, 0.61
- A39C G44U — lower, 0.1
- U28A C37A — lower, 0.04
- C10G A41U — lower, 0.05
- A16U G27A — higher, 0.59
- C10U A16U — lower, 0.19
- C23G C45G — higher, 0.77
- G19C U34A — higher, 0.28
- U9A C18U — lower, 0.11
- U9A C18G — lower, 0.09
- U32C A39G — lower, 0.07
- C15G A25G — lower, 0.06
- U9G U32G — lower, 0.05
- U20A G33A — lower, 0.13
- A25G G33U — lower, 0.05
- G27A — higher, 0.81
- C10U G30A — higher, 0.54
- G21C G36A — lower, 0.1
- C3A G30C — higher, 0.58
- A11C G27A — lower, 0.11
- C3A G5U — higher, 0.28
- G33A C37G — lower, 0.04
